Experimental data reported in the supplement of paper PMC10567573.

B1: TRIM35 (parent)
chain: WEVQVSPTCPVCKDRASPADLRTN
B2: NEUROD6 (parent)
chain: YHSPELTTPPGHGTLDNSKSMKPY

Variants of: B1
Experiment: protein stability index of a GFP-peptide fusion (GPS, HEK-293T) (PSI 1-6); higher = more stable
Conditions: c terminus: a fixed tail appended
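Note: lentivirally expressed fusions sorted by FACS into six bins by GFP to DsRed ratio, PSI derived from sequencing read proportions per bin multiplied by bin number.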

Protein stability index of substitutions, site by site:
V11: I 2.24; P 3.86; R 2.93; N 2.9; S 1.79; F 1.78; D 3.64; T 3.14; W 2.88; Q 2.3; L 1.9; M 1.23; H 1.96; C 1.68; G 2.89; A 2.37; Y 1.51; K 3.7
K13: S 2.19; C 1.72; W 2.09; M 1.94; Q 2.66; Y 2.05; L 3.25; R 1.46; F 1.94; G 1.7; N 2.39; P 3.74; E 2.71; V 2.7; I 2.17; D 2; T 2.31
D14: L 2.62; P 1.9; I 1.93; M 1.75; T 1.83; V 1.61; K 2.54; Y 1.62; E 2.75; S 2.5; Q 2.18; F 2.81; C 1.03; A 2.49; W 2.71; H 1.81
P7: V 1.32; T 1.58; S 2.5; Y 2.31; Q 2.43; L 1.9; A 1.72; M 1.33; D 2.43; R 2.19; H 2.2; N 1.8; I 1.97; W 2.58; G 3.03
V5: A 2.15; H 2.97; W 2.4; G 2.48; K 2.98; I 2.27; P 1.68; D 4.04; S 2.94; Y 2.58; T 3.03; M 2.41; L 2.29; Q 3.37; N 2.71
V3: P 2.49; K 2.83; T 3.5; N 3.38; A 3.31; L 2.55; G 2.29; Y 3.35; S 3.38; Q 2.96; F 2.39; R 2.31; C 2.11; D 3.35; H 3.16; M 2.79; W 2.8; I 2.89
C12: E 4.81; T 4.54; F 3.29; I 3.4; V 3.89; L 3.8; H 3.46; G 3.7; M 4.44; K 3.88; Q 3.9; A 4.59; D 4.14; P 3.86
W1: T 2.79; H 3.37; Y 2.65; I 2.08; C 3; A 3.05; V 3.4; K 3.54; Q 3.1; N 3.23; G 2.92; M 2.75; R 3.66; F 2.85; S 2.6; P 3.29; D 3.25; E 3.52; L 3.13
C9: E 4.49; T 3.94; H 3.74; G 3.97; V 4.11; W 2.52; K 4.72; R 4.04; M 3.15; P 3.11; F 2.85; Y 3.5; N 4.34; L 1.98; I 3.53; Q 4.56; D 4.9; A 4.38
P10: A 1.25; V 2.02; I 2.34; H 2.81; K 2.79; T 2.38; C 3.25; E 2.23; F 2.89; R 2.42; N 2.58; W 2.51; M 2.46; L 2.65; Q 3.01; S 3.32; Y 2.29
Q4: E 2.08; P 3.58; A 1.73; C 2.2; T 2.36; K 2.07; S 1.87; N 2.73; W 1.48; L 2.08; V 2; R 1.9; Y 3.38
E2: D 2.2; R 1.98; K 2.42; S 2.58; C 2.46; V 2.21; W 1.68; N 2.3; H 2.51; F 1.72; I 2.45; P 2.12; G 2.56; M 1.41; T 2.02; A 2.48
R15: E 3.43; S 3.07; L 2.47; V 2.74; T 2.54; Q 2.54; C 2.26; P 3.31; A 3.22; F 2.07; I 2.48; N 2.48; M 2.04; H 2.46
T8: S 2.37; A 3.17; L 1.88; Q 2.33; K 2.39; I 2; E 3.07; V 1.66; F 1.85; P 2.92; N 2.79; G 2.48; W 2.56; R 1.7; D 3.42
S6: K 1.85; C 2.63; W 1.94; T 2.22; M 1.89; F 2.4; Q 2.53; H 3.03; D 2.84; I 2.12; N 3.46; R 2.5; L 2.6; G 2.54; Y 2.07; E 1.71; P 2.87; A 1.87

Variants of: B2
Experiment: as above
Conditions: c terminus: a fixed tail appended

Protein stability index of substitutions, site by site:
M21: N 2.82; L 2.44; Y 1.54; S 2.18; V 2.42; K 2.36; C 2.42; P 2.62; D 2.39; A 2.16; T 2.67; H 2.56; Q 2.32; G 2.71; I 2.84; F 2.18; E 2.35; W 2.14; R 2.23
S20: Q 2.48; M 2.43; E 2.54; F 1.9; P 2.3; W 1.97; T 2.87; Y 2.23; G 2.28; L 1.79; H 1.87; R 1.4; I 1.7; N 2.33; V 1.92; K 1.94
Y24: R 2.48; E 2.91; G 2.67; F 2.21; S 2.36; C 2.38; I 2.21; V 2.41; L 2.27; M 2.02; W 1.98; D 2.44; N 2.44; H 2.45; T 2.55; K 2.23; Q 2.62; A 2.24
K22: W 2.32; Q 2.15; L 2.2; G 1.75; I 2.41; V 2.06; H 1.87; M 2.15; S 2.26; T 2.32; P 1.82; D 2.55; R 2.47; F 2.25; C 1.81; Y 1.83; A 2.56; E 2.46; N 2.14
P23: N 2.36; K 2.33; C 1.87; Q 2.08; S 1.9; D 2.28; I 1.69; T 1.77; E 2.41; V 2.18; R 1.99; L 2.44; A 2.36; W 2.67; H 2.24; Y 1.77; G 2.23; M 1.98; F 2.33
